# In the nanobody polyreactivity screen of Harvey et al. (2022):
# Test: yeast display, Sf9 membrane polyspecificity reagent, FACS + sequencing; frameworks hold sequencing errors
# Procedure, shortened: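 In a synthetic yeast display library (Saccharomyces cerevisiae BJ5465), nanobody expression was induced with galactose for 36–48 hours. FACS gates were set low and high (top ~1%) using anti-HA fluorescence for expression and streptavidin fluorescence for binding of the Sf9 membrane reagent. Each polyreactivity label is drawn from the gate of origin.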
row,Sequence,polyreactivity (PSR sort gate)
1,QFQLVESGGGLVQAGGSLRLSSAASGFTFIRYAMGWYRPAPGKERELVAAITVSGTRTYYADSVKGRFTISRDNAKNTVYLQMNSLKPEDTAVYYCNARDVYTGYGMGYWGQGTQVTVSS,high polyreactivity
2,QFQLVESGGGLVQAGGSVRLSCAASGSTFYLYAMGWYRQAPGKERELVAAITYGGGSTYYADSVKGRFTISRDNAKNTVYLQMNSLKPEDTAVYYCAARWLYWPRYNSLVYTHRDSWGQGTQVTVSS,low polyreactivity
3,QFQLVESGGGLVQAGSRLRLICAASGSTFKYYTMGWYRQAPGKERELVATIRGSGTTYADSVKGRFTISRDNAKNTVYLQMNSLKPEDTAVYYCARLPPADMDYWGQATQVTVSS,low polyreactivity
4,QFQLVESGGGLVQAGVSLRLICAASVSTFGYNAMGWYRQAPGKERELVPANNGRGGGTYYADSVKGRFTISRDNAKNTVYLQINSLKPEDTAVYYCAKLRRAGTGRGSHVYRQSDYWGQGTQVTVSS,high polyreactivity
5,QFQLVESGGGLVQAGVSLRLSCAASGSTFYYGMVCSRHAPRKERELVAAISSRGGTTYYADSVKGRFTISRDNAKNTVYLQMNSLKPEDTAVYYCAAPVPYYVPSRNEGDYWGQGTQVTVSS,low polyreactivity
6,QFQLVESGGGLVQARGSLRLSCAPSGSTFGYYTMGWYRQAPGKERELVAAISWSGGSTYYADSVKGRFTISRDNAKNTVYLQMNSLKPEDTAVYYCAALGYTYKYYSYYWGQGTQVTVSS,high polyreactivity
7,QFQLVESGGGLVQEGGSLRISCAASGSIFNEYAMGWYRQAPGKERELVAAISTSGDITYYADSVKGRFTISLDTAKNTVYLQMNSLKPEDTAVYYCAAKYSLLRQYNRLDYWGQGTQVTVSS,low polyreactivity
8,QFQLVESGGVLVQAGGSLRLSCAASGSTFNHYAMGWYRQARGKERELVADITKSGASTYADSVKGRFTISRDNAKNSVYLQMNSLKPEDTAVYYCAAGRRNYGTKGRGDYWGQGTQVTVSS,low polyreactivity
9,QFQLVESGRGLVQAGGSLRLSCAASVRIFLWYAMGWYRQAPGKERELVAVIRGRGDSTSYADSVKGRFTISRDNAKNTVYLQMNSLKPEDTAVYYCADVGRYDYNYWGQGTQVTVSS,low polyreactivity
10,QFQLVESGVGLVQAGGSLRLSCAASGRIFTNYAMGWYRQAPGKERELVASINYSGATRNYADSVKGRFTISRDNAKNTVYLQMNSLKPEDTAVYYCNADIYPDLYGSTNYDFNYWGQGTQVTVSS,low polyreactivity
11,QFQLVESVGGLVQAGGSLRLSCAASGFIFGGYAMGWYIKAPGKERELVAAISSSGGSTYYADSVKGRFTISRDNAKNTVYLQMNSLKPEDTAVYYCAKVGWSRRYYYWGQGTQVTVSS,high polyreactivity
12,QFQLVESVGGLVQAGGSLRLSCAATGRTSYVYLMVSYRAATGTEMELVAAITGSGGSTYYADSVKGRFTISRDNEKNNVYLQLNSLKPEDTAVYYCAKAYYSYEVYLGLSYVRRYVYWGQGTQVTVSS,low polyreactivity
13,QFQLVEYGGGLFQAGGSLRLSCDASGSIFPYNDLGWYRQAPGKERELVARITNGGSTNYADSVKGRFTISRDNAKNTFYLQMNSLKPEDTAGYYCNKDGTQEFAPDGHEYWGQGTQVTVSS,low polyreactivity
14,QGHLVESGGGLVQAGGSLRLSCAASGFIFDYYAMGWYRQAPRKERELVAAITRDGGGTYYADSVTGRFTISRDNAKNTVYLQMNSLKPEDTAVYYCAARRAVRLYYWGQGTQVTVSS,high polyreactivity
15,QGQHVESGGGLVQAGGRLRLSCAASGSILSGYEMGRSREAPGKERELVASITRGGSTYYADSVKGRFTISRDNANNSVYFQMNSLNPEDPAVYDCARYGSKNRRLGMDYWGQGTQVTVSS,low polyreactivity
16,QGQHVESGGGLVQAGGSLRLSCAASGRIFVPYAMGWYRQAPGKERELVAAITWRGGSPYYADSVKGRFTLSRDNAKNTVYLQMNSLKPVDTAVYYCNAAEASPWFWFSHLQVGMDYWGQGTQVTVSW,low polyreactivity
17,QGQLEESGGGLVQAGGSLRLSCAASGSIFGENAMGWYRQAPGKDRELVAAISSAGSTKYADSVKGRFTISRDNAKNSVYFQMNSLKPEDTAVYYCAAGYYRTSYPYSYYYWGQGTQVTVSS,low polyreactivity
18,QGQLEESGGGLVQAGGSLRLSCAASGSLFPSYVMGWYRQAPGKERELVAAIRTSGDRTYYADSVKGRFTNSRDNAKNTVYLQMNCLKPEDTAVYYCAAPYGHKSPRMYYWGQGTQVTVSS,high polyreactivity
19,QGQLEESGGGLVQAGGSLRLSCAASGSTFTYYAMGWYRQATGKERELVAAISWSGTRTYYADSVKGRFTISRDNAKNTDYLQTNSLKPEDTAVYYCAADWRRSGVYTMGYWGQGTQVTVSS,high polyreactivity
20,QGQLGESGGGLVQAGGSLRLSSPASGIIFWDYAMAWSRQSPGNEREFVAAINTSGGTTTYADSVKGRFTISRDNAKNTVYLQMNSLKPEDTAVYYCAADPWGYYSYAYYYWGQGTQVTVSS,low polyreactivity
21,QGQLVDSGGGLVQAGGSLRLSCAASGFTVTRYAMGWYRTATGKERELVAAISWNSGSTYYADSVKGRFTISRDNAKNTVYLQMNSLKPEDTAVYYCAARDDQGYCYWGQGTQVTVSS,high polyreactivity
22,QGQLVESCGGLVQAGGSLRFICAASGSNFFSYAMGCYRQAPWKERELVASISRRGGTTYYADSVKGRFTISRDNAKNTVYLHMNSLKPDDTAVYYCAAKLLYGGRYGYWGQGTQVTVSS,high polyreactivity

row,Sequence,polyreactivity (PSR sort gate)
1,QGQLVESCGGLVQAGGSLRLSCAASGSTFAAYTMGWYRQAPGQERELVAAIRFDGGRTYYADSVKGRFTSSRDNAKNTVYLPMNSLKPEDTAVYYCRAWQSYSYDYWGQGTQVTVSS,high polyreactivity
2,QGQLVESGGALVQAGGSLRLSCAPSGRTFHGYAMGGYRQAPGKERELVARINWSDGRTYYADSVKGRFTISRDNAKNTVYLQMNSLKPEDTAVYYCAADKTVSYGPAWYYYWGQGTQVTVSS,low polyreactivity
3,QGQLVESGGGFVQAGGSLRLSCAASGRTIEGNAMGWYRQPPWKERELVAGIRQSGDSTYYADSVKGRFTISRDNAKNTVYLQMNSLKAEETAVFYSNSRAFPFGTGVQGFGFGYWGQGTQVTVSS,low polyreactivity
4,QGQLVESGGGIVQAGGSLRLSCSASGLTYGTNAKGLYRQAPRQERELVAAISRSGGTTYYADSVKWRFTISRDNAKNTVDLQMNSLKPEDTAVYYCATRPYSPWRHYFWGQGTQVTVSS,high polyreactivity
5,QGQLVESGGGLFQAGGSLRLSCDDSGRTFSGYAMGWYRQAPGKEREFVAAITWSGGSTYYADSVKGRFSISRDNAKNTVYLQMNSLKPEDTAVYYCAARDYTRYGYGYWGQGTQVTVSS,high polyreactivity
6,QGQLVESGGGLGQAGGSLRLSSAASGRTFGRYAMGWYRQAPGNERELVAAISYSTDSTYYADSVKGRFTISRDNAKNTVYLQMNSLKPEDTAVYYCATDSVNVGSYVGDKHDYWGQGSQVTVSS,low polyreactivity
7,QGQLVESGGGLLQAGGSLRLISAASGSTFPIYAMGWYRHAPRKERELVAAITWRGGSRKYYADSVKGRYTISRDNAKNTVYLQMNCLKPEDTAVYYCAAEYKWPLYGYWGQGTQVTVSS,low polyreactivity
8,QGQLVESGGGLVQAGCSLRLSCAASGSTFSYYAMGWYRQAPGKETELVAAIRKSGGSTYYADSVKGRFTISRDNAKNTVYLQMNSLKPEDTAVNSCVAVFSYYGWYSRYDYWGQGTQVTVSS,low polyreactivity
9,QGQLVESGGGLVQAGGILRLRCAASGRMFQQYAMGWYRQAPGKERELVAVITYRAGRTHYADSVKGRFTISRDIAKNTVYLQMYRVKPDDTAVYYCAAGRYYAVWHSISGFDSWGQGTQETVSS,low polyreactivity
10,QGQLVESGGGLVQAGGRLRLSCAASGFIFCIYAMAWYRTATGKQREFVAVSTYRGDTKYYADSVKGRFTISRDNAKNTVYLQMNSLKAEDTAVYSCAAYTVQKYGYWGQGTQVTVSS,low polyreactivity
11,QGQLVESGGGLVQAGGSLRLICAASGFIFQANALGWYRQAPGQERELVAAITSSVGRTYYADSVKGRFTISRDNAKNTVYLQMNSLKPEYTEVYYCNAGGHLEMNYWGQGTQVTVSS,low polyreactivity
12,QGQLVESGGGLVQAGGSLRLSCAACGSIFTYYTMGWYRQAPGKERELVAAIRWSAGRTYYADSVKGRFTISRDNAKNTVYLQMNSMKPEDTAVYYCAAAERLRHGLKFDYWGQGTQVTLSS,high polyreactivity
13,QGQLVESGGGLVQAGGSLRLSCAASGFIFDNNAMGWYRQAPGKERELVAAISFSAGSTYYADSVKGRFTISRDNAKNTVYLQMNSLNPEDTAVYYCNADDWWGGYDYWGQGTQVTVSS,low polyreactivity
14,QGQLVESGGGLVQAGGSLRLSCAASGFIFVPYAMGWYRQAPGKEREFVAAITASGGNTYYADSVKGRFTISRDNAKNTVYLQMNSLKPEYTAVYYCAAEISGSLESLDYWGQGTQVTVSS,low polyreactivity
15,QGQLVESGGGLVQAGGSLRLSCAASGFSFLRYAMGWYRQAPGKERELVAAISTSGGSTSYADSVKGRFTISRDNAKNTVSLQKNSLKQEDTAVYYCNAVLYKVSISEYDYWGQGTQVTVSS,high polyreactivity
16,QGQLVESGGGLVQAGGSLRLSCAASGFTFVGNAMGWYRQAPGKERELVATITSGGNTKYADSVKGRFTISRDNAKYTVYLQKNSLKPEDTAVYYCAAAKYNYRRFNYWGQGTQVTVSS,low polyreactivity
17,QGQLVESGGGLVQAGGSLRLSCAASGFTISSYAMGWYRQATGKEREMVAAISSSGSRTSYADSVKVRFTISRDIAKNSVYFQMNSLKPEDTAVYYCAARPGDGGYYYWGQGTQVTVSS,high polyreactivity
18,QGQLVESGGGLVQAGGSLRLSCAASGFTSSRNAMGWYIQEAGKERELVATISSGGDTYYADSVKGRFTISRDNAKNTVYLQMNSLKPEDTAVYYCNKDPLYAWGYDYWGQGTQVTVSS,low polyreactivity
19,QGQLVESGGGLVQAGGSLRLSCAASGIIFEYYDMGWYRQAPGKERELVAAIDSGGSTYYADSVKGRFTISRDNAKNTVYLQMNSLKPEDTAVYYCAASRPPNTSNTGYGSWGQGTQVTVSS,low polyreactivity
20,QGQLVESGGGLVQAGGSLRLSCAASGRIFGHYAMGWYRQAPGKERELVAAIRWRGGSTYYADSVKGRFTISRDNAKNTVYLQMNSLKPEDTAVYYCARTNNGRFRIVDTRYDYWGQGNQVTVSS,low polyreactivity
21,QGQLVESGGGLVQAGGSLRLSCAASGRIFPGNVMGWYRPAPGKERELVAAISSSGGSTYYADSVKGRFTISRDNAKNTVYLQMNSLKPEDTAVYYCAADSSDWPYDYWGQGTQVTVSS,low polyreactivity
